Data reported in patent US20160046711A1 (Novartis, published 2016).

Legend:
[1] = target: T1, human CDH6 expressed on cells (human, UniProt P55285 54-790); experiment: FACS titration
T1 sequence: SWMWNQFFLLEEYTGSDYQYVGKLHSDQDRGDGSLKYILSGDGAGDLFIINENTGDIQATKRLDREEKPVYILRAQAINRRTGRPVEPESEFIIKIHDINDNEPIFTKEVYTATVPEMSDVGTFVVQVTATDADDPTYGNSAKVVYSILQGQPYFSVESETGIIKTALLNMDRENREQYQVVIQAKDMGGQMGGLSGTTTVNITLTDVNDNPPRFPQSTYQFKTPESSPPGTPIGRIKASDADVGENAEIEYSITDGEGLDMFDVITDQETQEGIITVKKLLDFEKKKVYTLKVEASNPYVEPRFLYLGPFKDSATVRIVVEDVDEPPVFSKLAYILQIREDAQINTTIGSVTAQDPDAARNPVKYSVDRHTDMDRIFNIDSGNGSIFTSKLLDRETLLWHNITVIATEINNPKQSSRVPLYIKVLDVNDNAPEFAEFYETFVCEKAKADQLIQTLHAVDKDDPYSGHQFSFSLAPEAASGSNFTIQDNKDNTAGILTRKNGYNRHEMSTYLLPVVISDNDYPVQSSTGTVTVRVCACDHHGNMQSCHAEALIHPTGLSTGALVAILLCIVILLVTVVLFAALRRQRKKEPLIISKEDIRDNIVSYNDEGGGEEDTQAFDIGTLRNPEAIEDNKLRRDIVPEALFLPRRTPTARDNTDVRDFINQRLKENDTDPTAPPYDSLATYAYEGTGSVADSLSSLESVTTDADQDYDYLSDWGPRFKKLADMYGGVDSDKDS

[2] = target: T1, human CDH6 expressed on cells; experiment: FACS titration; remark: listed apart in the source
[3] = target: T2, cynomolgus CDH6 expressed on CHO cells (cynomolgus, UniProt A0A2K5TW62 54-790); experiment: FACS titration
T2 sequence: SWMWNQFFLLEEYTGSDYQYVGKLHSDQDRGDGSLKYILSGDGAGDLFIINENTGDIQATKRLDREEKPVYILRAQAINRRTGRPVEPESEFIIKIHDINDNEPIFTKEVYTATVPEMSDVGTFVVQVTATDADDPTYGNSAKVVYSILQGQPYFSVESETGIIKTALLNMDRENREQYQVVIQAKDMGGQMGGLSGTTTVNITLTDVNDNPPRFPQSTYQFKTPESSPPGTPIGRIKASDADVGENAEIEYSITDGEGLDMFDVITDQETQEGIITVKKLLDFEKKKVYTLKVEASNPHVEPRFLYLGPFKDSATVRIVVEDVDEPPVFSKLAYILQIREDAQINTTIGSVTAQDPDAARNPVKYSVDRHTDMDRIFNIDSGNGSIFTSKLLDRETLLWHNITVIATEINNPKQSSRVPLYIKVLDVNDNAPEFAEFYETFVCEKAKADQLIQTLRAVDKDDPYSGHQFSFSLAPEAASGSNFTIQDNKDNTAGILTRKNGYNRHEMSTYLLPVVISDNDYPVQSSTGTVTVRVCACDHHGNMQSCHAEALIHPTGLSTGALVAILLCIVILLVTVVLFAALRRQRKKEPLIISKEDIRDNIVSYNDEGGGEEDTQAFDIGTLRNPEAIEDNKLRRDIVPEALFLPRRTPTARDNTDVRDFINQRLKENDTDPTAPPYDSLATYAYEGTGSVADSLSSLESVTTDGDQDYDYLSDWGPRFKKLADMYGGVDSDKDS

[4] = target: T3, mouse CDH6 expressed on CHO cells (mouse, UniProt P97326 54-790); experiment: FACS titration
T3 sequence (looked up): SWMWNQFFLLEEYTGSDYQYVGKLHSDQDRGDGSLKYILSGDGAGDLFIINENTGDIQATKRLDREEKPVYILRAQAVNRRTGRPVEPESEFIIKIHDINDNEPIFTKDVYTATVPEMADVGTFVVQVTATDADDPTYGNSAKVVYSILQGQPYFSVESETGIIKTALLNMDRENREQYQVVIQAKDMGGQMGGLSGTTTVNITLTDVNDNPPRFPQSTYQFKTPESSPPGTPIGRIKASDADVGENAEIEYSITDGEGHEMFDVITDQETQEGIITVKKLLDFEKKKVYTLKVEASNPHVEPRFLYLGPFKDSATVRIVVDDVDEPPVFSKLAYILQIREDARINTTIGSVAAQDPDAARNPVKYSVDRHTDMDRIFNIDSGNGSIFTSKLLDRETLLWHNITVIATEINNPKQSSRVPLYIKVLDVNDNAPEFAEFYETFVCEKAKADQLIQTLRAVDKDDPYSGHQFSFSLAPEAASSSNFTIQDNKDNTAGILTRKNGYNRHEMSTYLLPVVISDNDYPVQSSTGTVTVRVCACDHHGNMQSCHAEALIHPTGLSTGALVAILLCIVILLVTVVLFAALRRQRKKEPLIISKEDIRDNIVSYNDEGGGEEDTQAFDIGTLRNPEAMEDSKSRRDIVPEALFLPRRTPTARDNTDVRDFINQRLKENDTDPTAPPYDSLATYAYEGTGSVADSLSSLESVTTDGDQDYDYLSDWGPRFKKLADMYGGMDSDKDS

[5] = target: T4, rat CDH6 expressed on CHO cells (rat, UniProt P55280 54-789); experiment: FACS titration
T4 sequence (looked up): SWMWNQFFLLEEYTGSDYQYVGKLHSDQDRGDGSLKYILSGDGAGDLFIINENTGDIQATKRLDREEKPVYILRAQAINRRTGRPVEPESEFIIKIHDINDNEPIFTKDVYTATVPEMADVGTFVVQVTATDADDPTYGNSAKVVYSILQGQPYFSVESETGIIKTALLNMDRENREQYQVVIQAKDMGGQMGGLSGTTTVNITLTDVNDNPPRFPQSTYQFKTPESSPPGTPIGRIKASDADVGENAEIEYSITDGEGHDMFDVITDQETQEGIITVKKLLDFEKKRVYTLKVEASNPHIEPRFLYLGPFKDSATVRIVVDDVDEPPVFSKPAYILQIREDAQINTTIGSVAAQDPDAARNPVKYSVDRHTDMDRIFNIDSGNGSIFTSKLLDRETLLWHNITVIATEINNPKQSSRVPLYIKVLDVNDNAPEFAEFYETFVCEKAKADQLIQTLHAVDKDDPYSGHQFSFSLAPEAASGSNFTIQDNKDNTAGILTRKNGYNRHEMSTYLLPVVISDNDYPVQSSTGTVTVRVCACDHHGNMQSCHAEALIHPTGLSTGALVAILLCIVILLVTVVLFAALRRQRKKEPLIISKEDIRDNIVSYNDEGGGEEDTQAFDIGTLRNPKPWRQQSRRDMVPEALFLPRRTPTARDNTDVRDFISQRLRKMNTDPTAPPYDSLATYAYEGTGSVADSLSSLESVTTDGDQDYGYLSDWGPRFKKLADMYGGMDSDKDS

[6] = target: T3, mouse CDH6 expressed on CHO cells; experiment: FACS titration on CHO-moCDH6
[7] = target: T1, human CDH6 expressed on cells; experiment: FACS titration on CHO-TO-huCDH6
[8] = target: T2, cynomolgus CDH6 expressed on CHO cells; experiment: FACS titration on CHO-cyCDH6
[9] = target: T4, rat CDH6 expressed on CHO cells; experiment: FACS titration on CHO-ratCDH6

B1: NOV0712 (antibody, human IgG1, kappa, V domains shown)
VH: QVQLLESGGGLVQPGGSLRLSCAASGFTFSSHGMHWVRQAPGKGLEWVSVISGSGSNTGYADSVKGRFTISRDNSKNTLYLQMNSLRAEDTAVYYCARQWGSYAFDSWGQGTLVTVSS
VL: DIQMTQSPSSLSASVGDRVTITCRASQSISSYLNWYQQKPGKAPKLLIYAVSTLQSGVPSRFSGSGSGTDFTLTISSLQPEDFATYYCQQSGTFPPTTFGQGTKVEIKR
For B1, the EC50 [1] was 0.946 nM, the EC50 [2] was 0.386 nM and the EC50 [3] was 1.07 nM. It also gave an EC50 [4] of 1.26 nM and an EC50 [5] of 0.814 nM.

B2: NOV0712-sulfo-SPDB-DM4 (antibody, human IgG1, kappa, V domains shown)
VH: QVQLLESGGGLVQPGGSLRLSCAASGFTFSSHGMHWVRQAPGKGLEWVSVISGSGSNTGYADSVKGRFTISRDNSKNTLYLQMNSLRAEDTAVYYCARQWGSYAFDSWGQGTLVTVSS
VL: DIQMTQSPSSLSASVGDRVTITCRASQSISSYLNWYQQKPGKAPKLLIYAVSTLQSGVPSRFSGSGSGTDFTLTISSLQPEDFATYYCQQSGTFPPTTFGQGTKVEIKR
modifications: sulfo-SPDB-DM4 linker/payload on antibody amines, positions not given
With B2 the EC50 [2] was 0.364 nM, the EC50 [6] was 0.94 nM and the EC50 [7] was 0.651 nM. For the same binder, the EC50 [8] was 0.606 nM and the EC50 [9] was 0.637 nM.
